Laboratory results from US7927849B2, “Laccase enzyme and use thereof” (AB Enzymes OY, priority 2004, dated 2011).
Values joined by “and” are separate entries in the source; they are usually repeats but may differ in a detail not shown here. Equal entries are not always repeated.

Assays:
[1] = system: Thielavia wild type laccase (wt TaLcc1); settings: pH 4.5
[2] = target: T1, Thielavia arenaria ALKO4197 laccase TaLcc1, wild type (wt TaLcc1), SEQ ID NO: 12 (Canariomyces arenarius, UniProt F6N9E7); assay: biochemical; settings: pH 4.5, read-out: Inhibition (%) of laccase
T1 construct: predicted mature residues 22-604

[3] = system: recombinant Thielavia arenaria TaLcc1 laccase (rTaLcc1); format: biochemical
Description: The inhibition effect of different compounds on the activity of the recombinant TaLcc1 laccase was determined as described in Example 2.

Specific activity on DMP = format: biochemical; settings: 25 mM MES buffer, pH 5.5
Description: (§1) Specific activities of the purified Thielavia laccase were determined towards different laccase substrates.

[4] = Specific activity on syringaldazine; format: biochemical; settings: 25 mM MES buffer, pH 5.5
Description: as §1

[5] = Specific activity on guaiacol; format: biochemical; settings: 25 mM MES buffer, pH 5.5
Description: as §1

[6] = Isoelectric focusing (pI); format: physicochemical; settings: pH range 3-9, ABTS staining
Description: Molecular weight of the Thielavia arenaria laccase (wt TaLcc1) was determined on SDS-PAGE according to Laemmli (1970). The gels used in the SDS-PAGE analysis were ready-made 12% Tris HCl gels (BioRad). Protein bands were visualized by staining with Coomassie Brilliant Blue (R 350; Pharmacia) and compared with molecular weight markers (Prestained Protein Marker Broad Range #7708S; New England BioLabs, Beverly, Mass.). The molecular weight of the Thielavia areanaria laccase was approximately 80 kDa. The isoelectric point of the laccase was determined with isoelectric focusing within the pH range of 3-9 (Pharmalyte IEF, Pharmacia) on a LKB 2117 Multiphor II Electrophoresis System (LKB Pharmacia, Bromma, Sweden) according to the manufacturer's instructions.
The purified recombinant Thielavia arenaria TaLcc1 was characterized in terms of pH optimum, thermal stability, and pI as described in Example 2. The molecular weight was determined by MALDI-TOF mass spectrometry on a Ultraflex™ time-of-flight instrument (BrukerDaltonics, Germany) as previously described (Palonen et al., 2003). The redox potential of TaLcc1 was also determined with a combined Pt-AgCl/KCl microelectrode at pH 5.0 according to Sigoillot et al (2004)

[7] = Specific activity on ABTS; format: biochemical; settings: 25 mM succinate buffer pH 4.5, 25° C.
Description: The activity assay was carried out in accordance with the method developed by Niku-Paavola et al. (1988). The sample was diluted with 0.025 M succinate buffer, pH 4.5. […] The activity is expressed as nano katals.
as §1

## [Cl-].[Na+] [NaCl]
[1]
  Inhibition(%) wt TaLcc1: 42% and 35%

## O=C(O)CN(CCN(CC(=O)O)CC(=O)O)CC(=O)O [EDTA]
[1]
  Inhibition(%) wt TaLcc1: 0%
[2]
  inhibition at 10000 µM: 0%
[3]
  Inhibition (%) of laccase rTaLcc1: 5%

B1: wt TaLcc1: Wild type laccase purified from Thielavia arenaria ALKO4197 culture supernatant (protein)
chain: MKSWAAAVALMVGILSPHAAAAPPANPVQRDMLQVLEARQSGPTCNTPSNRACWTNGFDINTDYEVSTPNTGRTVAYQLTLTEKENWIGPDGVLKNVVMLVNDKIIGPTIRANWGDNIEVTVINNLKTNGTSMHWHGLRQLGNVFNDGANGVTECPIPPKGGRKTYKFRATQYGTSWYHSHFSAQYGNGVVGTIQIDGPASLPYDIDLGVFPLMDYYYRSADELVHFTQSNGAPPSDNVLFNGTARHPETGAGQWYNVTLTPGKRHRLRIINTSTDNHFQVSLVGHNMTVIATDMVPVNAFTVSSLFLAVGQRYDVTIDANSPVGNYWFNVTFGDGLCGSSNNKFPAAIFRYQGAPATLPTDQGLPVPNHMCLDNLNLTPVVTRSAPVNNFVKRPSNTLGVTLDIGGTPLFVWKVNGSAINVDWGKPILDYVMSGNTSYPVSDNIVQVDAVDQWTYWLIENDPTNPIVSLPHPMHLHGHDFLVLGRSPDELPSAGVRHIFDPAKDLPRLKGNNPVRRDVTMLPAGGWLLLAFKTDNPGAWLFHCHIAWHVSGGLSVDFLERPNDLRTQLNSNAKRADRDDFNRVCREWNAYWPTNPFPKIDSGLRHRFVEESEWMVR
modifications: Thielavia arenaria ALKO4197; (1)..(617) Deduced amino acid sequence of Thielavia arenaria ALKO4197 laccase 1 (Ta Lcc1)
notes: Wild type laccase purified from Thielavia arenaria ALKO4197 culture supernatant
Specific activity on DMP
  Specific activity on DMP: 260 nkat/mg
[4]
  Specific activity on syringaldazine: 490 nkat/mg
[5]
  Specific activity on guaiacol: 63 nkat/mg
[6]
  pI: 5.5-6.9
[7]
  Specific activity on ABTS: 1020 nkat/mg
